Biological target: T1, human gp130 extracellular domain (E23-E619) with C-terminal mouse IgG2a Fc (human)
T1 construct: dimeric; also called hGP130-mFc; human GP130-mFc
T1 chain: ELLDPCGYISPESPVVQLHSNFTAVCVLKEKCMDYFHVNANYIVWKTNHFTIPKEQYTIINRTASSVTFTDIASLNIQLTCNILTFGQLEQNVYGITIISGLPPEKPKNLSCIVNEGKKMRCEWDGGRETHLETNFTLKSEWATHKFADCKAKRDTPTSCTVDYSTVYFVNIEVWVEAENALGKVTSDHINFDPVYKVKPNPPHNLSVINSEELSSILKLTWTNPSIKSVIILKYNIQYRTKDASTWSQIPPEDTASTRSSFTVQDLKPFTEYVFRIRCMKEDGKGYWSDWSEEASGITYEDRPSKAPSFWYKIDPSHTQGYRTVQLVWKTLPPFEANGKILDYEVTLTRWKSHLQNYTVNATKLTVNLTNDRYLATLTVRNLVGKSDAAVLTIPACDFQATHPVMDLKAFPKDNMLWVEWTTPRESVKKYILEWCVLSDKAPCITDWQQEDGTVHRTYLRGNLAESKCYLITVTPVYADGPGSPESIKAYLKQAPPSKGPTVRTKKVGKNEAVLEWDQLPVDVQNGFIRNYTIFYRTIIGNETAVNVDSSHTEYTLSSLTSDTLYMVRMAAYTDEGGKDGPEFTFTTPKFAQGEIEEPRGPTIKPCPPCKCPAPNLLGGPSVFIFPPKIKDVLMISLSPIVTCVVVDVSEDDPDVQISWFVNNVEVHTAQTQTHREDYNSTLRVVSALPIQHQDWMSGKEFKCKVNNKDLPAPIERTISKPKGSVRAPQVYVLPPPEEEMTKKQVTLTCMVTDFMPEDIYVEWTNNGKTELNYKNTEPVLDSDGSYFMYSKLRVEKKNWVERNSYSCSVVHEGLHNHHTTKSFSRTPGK
Assay: blocking ELISA, 2.5 nM hGP130-mFc on plate-bound CNTFR/CNTF complex; * below lower limit of quantitation 1.25E-09M
Experimental: The experiment was carried out using the following procedure. Human CNTFRα was coated at a concentration of […] in HBSS on a 96-well microtiter plate overnight at 4° C. […] Human CNTF at a concentration of 1 μg/ml in HBSS was added to the plate bound CNTFRα for 1 hour at room temperature. In separate dilution plates, a constant amount of 2.5 nM of human GP130-mFc protein was titrated with antibodies ranging from 3.4 pM to 200 nM in serial dilution and with no antibody present. These solutions were incubated for 1 hour at room temperature (RT) and subsequently transferred to the microtiter plates with CNTFRα/CNTF complex without washing. The plates were incubated for 2 hours at RT, washed with PBST buffer, and plate-bound hGP130-mFc was detected with an anti-mFc polyclonal antibody conjugated with horseradish peroxidase (HRP) (Jackson ImmunoResearch Inc). Samples were developed with a TMB solution (BD Biosciences, substrate A and B mixed at 1:1 ratio as per manufacturer's instructions) to produce a colorimetric reaction and then neutralized with 1M sulfuric acid before measuring absorbance at 450 nm on a Victor X5 plate reader.
Data analysis was performed using a sigmoidal dose-response model within Prism™ software (GraphPad). […]

B1: MAb16666 (antibody, V domains shown)
VH: EVQLVESGGGLVQSGGSLRLSCAASGFTFSRYEMNWVRQAPGKGLEWVAYISNTGTTRDYSDSVKGRFTISRDNAKNSLYLQMSSLRVEDTAVYYCVREKFSGTSDWFDPWGQGTLVTVSS
VL: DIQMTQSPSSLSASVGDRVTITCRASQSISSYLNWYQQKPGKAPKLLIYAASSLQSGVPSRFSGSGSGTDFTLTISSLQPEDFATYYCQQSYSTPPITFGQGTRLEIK
notes: hIgG4 isotype control used
B1 was tested, and the IC50 was 0.644 nM.
